Variants at the floor of the assay were thinned out. Some results are limits rather than exact numbers.

Sequences and labels used below:
B1: TPR 5TU (parent)
chain: GGAUCUUCUCGAUCUAACAAAAAAGACAAAUCUGCCACAAAGCUUGAGAGCAUCUUCGGAUGCAGAGGCGGCAGCCUUCGGUGGCGCGAUAGCGCCAACGUUCUCAACUAUGACACGCAAAACGCGUGCUCCGUUGAAUGGAGUUUAUCAUG

In the series the parent is B1. As to the kind of experiment: polymerase ribozyme fitness, log enrichment relative to wild type (log ratio); higher = more active; in vitro selection for triplet polymerase activity. The essentials:
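One round of in vitro selection, in triplicate, was applied to PCR-built, transcribed mutant libraries of each subunit of a heterodimeric triplet polymerase ribozyme. The steps were annealing with a biotinylated primer, partner subunit and triplets, incubation frozen at −7 °C, gel excision of extended constructs, streptavidin-bead capture and RT-PCR. Fitness is the logarithm, base 2, of genotype enrichment over wild-type enrichment from inverse-variance-weighted replicate averages of Illumina-sequenced inputs and outputs, keeping genotypes with ≥10 input reads and ≥1 read per output.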
Regarding C27G G83A, the “polymerase ribozyme fitness (log ratio)” value was -4.12.

On to C27G C105A C114A A119G, for which the “polymerase ribozyme fitness (log ratio)” value was ≤ -4.2.

A26U G84A C118A: the “polymerase ribozyme fitness (log ratio)” value is -3.09.

Regarding C27G C85G G88A G100C U148G, the “polymerase ribozyme fitness (log ratio)” value is ≤ -4.2.

Take A26U C85A: the “polymerase ribozyme fitness (log ratio)” value is -2.68.

With A26C U61A A64U C85A A110C, the “polymerase ribozyme fitness (log ratio)” value is ≤ -4.2.

In the case of A26U U56A A98G, the “polymerase ribozyme fitness (log ratio)” value is -1.83.

For C27U A47G C93A, the “polymerase ribozyme fitness (log ratio)” value was -4.19.

Take A26C C85A G94C: the “polymerase ribozyme fitness (log ratio)” value was -1.83.

For A26U C75U U148G, the “polymerase ribozyme fitness (log ratio)” value was ≤ -4.2.

On to C27G A29C C87G A121U, for which the “polymerase ribozyme fitness (log ratio)” value was ≤ -4.2.

As to A26C C63U C85A A120U, the “polymerase ribozyme fitness (log ratio)” value was -3.53.

With A26G A60G, the “polymerase ribozyme fitness (log ratio)” value is -3.55.

C27A A49C U90G U145C: the “polymerase ribozyme fitness (log ratio)” value was ≤ -4.2.

With A26U A97U A119G, the “polymerase ribozyme fitness (log ratio)” value is -2.34.

A26C G86A C99U G141C: the “polymerase ribozyme fitness (log ratio)” value was -3.84.

Consider C27A C38U G81A G86U A110U, for which the “polymerase ribozyme fitness (log ratio)” value is ≤ -4.2.

As to A26C G94A C131U, the “polymerase ribozyme fitness (log ratio)” value is -1.51.

As to A26C C87U, the “polymerase ribozyme fitness (log ratio)” value is -1.69.

For the variant A26U U56A U101G A115G, the “polymerase ribozyme fitness (log ratio)” value is -3.42.

With A26G G58A C105G G117C U127G, the “polymerase ribozyme fitness (log ratio)” value is ≤ -4.2.

As to A26U C35A U104G A150C, the “polymerase ribozyme fitness (log ratio)” value was ≤ -4.2.

Turning to A26U A89C C95U U104A A107G, the “polymerase ribozyme fitness (log ratio)” value was ≤ -4.2.

On to C27G G80A G81C, for which the “polymerase ribozyme fitness (log ratio)” value is -4.11.

Turning to C27G A28U G50U C87G G140C, the “polymerase ribozyme fitness (log ratio)” value was -3.94.

Regarding A26G A41C G94A A115C, the “polymerase ribozyme fitness (log ratio)” value was -3.45.

In the case of A26U U134A, the “polymerase ribozyme fitness (log ratio)” value is -3.96.

Take C27G C76A: the “polymerase ribozyme fitness (log ratio)” value is -3.63.

Take A26U A40C C76A G92C A121C: the “polymerase ribozyme fitness (log ratio)” value is ≤ -4.2.

In the case of C27G U56G, the “polymerase ribozyme fitness (log ratio)” value is ≤ -4.2.

With A26U A30U G48A, the “polymerase ribozyme fitness (log ratio)” value was ≤ -4.2.

As to A26G A28U G42C G59C C96G C105G C116U, the “polymerase ribozyme fitness (log ratio)” value is -4.04.

Take A26U A122G C131A: the “polymerase ribozyme fitness (log ratio)” value is -3.89.

Regarding A26U G84C U145G, the “polymerase ribozyme fitness (log ratio)” value is ≤ -4.2.

For the variant C27G A37U A64C G88C A91C A120G A122U U148G, the “polymerase ribozyme fitness (log ratio)” value is -4.09.

As to C27G U45G, the “polymerase ribozyme fitness (log ratio)” value was -3.87.

For the variant C27G A37U U55A U56A G70A G84C C108U, the “polymerase ribozyme fitness (log ratio)” value was ≤ -4.2.

Regarding C27A U44A C85A A107C U148C, the “polymerase ribozyme fitness (log ratio)” value is ≤ -4.2.

Consider C27A G58A G84A, for which the “polymerase ribozyme fitness (log ratio)” value is ≤ -4.2.

A26G A40G U55A G92A C123G C125U G126A U127C: the “polymerase ribozyme fitness (log ratio)” value is ≤ -4.2.

A26U U56A C93U: the “polymerase ribozyme fitness (log ratio)” value is -3.4.

For A26C G50C G71U A73G, the “polymerase ribozyme fitness (log ratio)” value is ≤ -4.2.

Turning to A26G A37G A40G G58U G65U G74C G88C U101C U151A, the “polymerase ribozyme fitness (log ratio)” value is ≤ -4.2.

As for A26G C75A G81A G140A U148C, the “polymerase ribozyme fitness (log ratio)” value was ≤ -4.2.

For A26U G46U G58A A73U C85G U111G, the “polymerase ribozyme fitness (log ratio)” value is ≤ -4.2.

Take C27A A28G C43A G58C C95U C105G: the “polymerase ribozyme fitness (log ratio)” value was ≤ -4.2.

As to C27U A60U, the “polymerase ribozyme fitness (log ratio)” value was -1.43.

As to A26U U31C A52U A73G C87A A107G, the “polymerase ribozyme fitness (log ratio)” value is ≤ -4.2.

Consider A26G C32G A64G C103A, for which the “polymerase ribozyme fitness (log ratio)” value is ≤ -4.2.

With A26G C76A, the “polymerase ribozyme fitness (log ratio)” value is -3.95.

Regarding A26U C87U, the “polymerase ribozyme fitness (log ratio)” value is -1.74.

Consider A26U C87G, for which the “polymerase ribozyme fitness (log ratio)” value is ≤ -4.2.

Consider C27U A41C C95U C125U, for which the “polymerase ribozyme fitness (log ratio)” value was -2.83.

In the case of A26U A28U G81C U90A, the “polymerase ribozyme fitness (log ratio)” value is ≤ -4.2.

Regarding A26G U44G A47C A49C C72G C76G A91C C103G C105G, the “polymerase ribozyme fitness (log ratio)” value is ≤ -4.2.

As for C27G A52C U53A A64G C69A U78A C79A C87G G94C C95A A142C, the “polymerase ribozyme fitness (log ratio)” value was ≤ -4.2.

Turning to A26U U82A A106C, the “polymerase ribozyme fitness (log ratio)” value was -3.93.

For the variant C27A A119U G133C A137G G140U U144G, the “polymerase ribozyme fitness (log ratio)” value is ≤ -4.2.

As for C27G C57U A91U C95A C131G U134G G140A, the “polymerase ribozyme fitness (log ratio)” value is ≤ -4.2.

As for C27G G58C G86A C105A U144A, the “polymerase ribozyme fitness (log ratio)” value is ≤ -4.2.

In the case of A26U U53A, the “polymerase ribozyme fitness (log ratio)” value was -1.58.

For the variant A26G A30C G59A G74A G84U, the “polymerase ribozyme fitness (log ratio)” value is -3.99.

Take A26G C27G A40G C57U C85U C118U: the “polymerase ribozyme fitness (log ratio)” value was -3.9.

As for C27U A52G G92A C96U G133A, the “polymerase ribozyme fitness (log ratio)” value was ≤ -4.2.

A26C U53A G58A: the “polymerase ribozyme fitness (log ratio)” value is -2.74.

Consider C27A C32U G46A G86U C105A, for which the “polymerase ribozyme fitness (log ratio)” value is ≤ -4.2.

With A26U G92A, the “polymerase ribozyme fitness (log ratio)” value was -3.86.

On to A26C C54G A121G, for which the “polymerase ribozyme fitness (log ratio)” value was -2.79.

As for A26G G42C C95U A150U, the “polymerase ribozyme fitness (log ratio)” value was ≤ -4.2.

Turning to A26U U31C A39U U90C, the “polymerase ribozyme fitness (log ratio)” value is ≤ -4.2.

With C27G C54A, the “polymerase ribozyme fitness (log ratio)” value is -3.98.

On to C27G G84A G136U, for which the “polymerase ribozyme fitness (log ratio)” value was ≤ -4.2.

Take C27U A49G: the “polymerase ribozyme fitness (log ratio)” value is -2.49.

As for C27A C87U, the “polymerase ribozyme fitness (log ratio)” value was -3.91.

C27G U55A A73G U77A C87A A142U: the “polymerase ribozyme fitness (log ratio)” value was ≤ -4.2.

With A26G C27G C87U U148A, the “polymerase ribozyme fitness (log ratio)” value is ≤ -4.2.

Turning to C27U A64G C75G G86A C105U, the “polymerase ribozyme fitness (log ratio)” value is -4.19.

As to A26U C36A G58C A89G G94U A138G, the “polymerase ribozyme fitness (log ratio)” value is ≤ -4.2.

Turning to A26U A49G U101G A120G A147C, the “polymerase ribozyme fitness (log ratio)” value is ≤ -4.2.

In the case of A26C C87U A122G A142G, the “polymerase ribozyme fitness (log ratio)” value was -3.94.

A26U C43G C85G C132U: the “polymerase ribozyme fitness (log ratio)” value is ≤ -4.2.

On to A26G G42U G48C G50U G84C C87G, for which the “polymerase ribozyme fitness (log ratio)” value is ≤ -4.2.

Turning to A26G A66U C85A C95A G124C C131A, the “polymerase ribozyme fitness (log ratio)” value is ≤ -4.2.

As to A26U C93U G117U A137C, the “polymerase ribozyme fitness (log ratio)” value was ≤ -4.2.

Source of the values: the RNAGym collection of RNA variant scans (doi:10.1073/pnas.2313332121).
